Measurements as given in patent US20260116944A1, “NOVEL TRIPLE GLP-1/GIP/GLUCAGON RECEPTOR AGONIST AND A PHARMACEUTICAL COMPOSITION FOR PREVENTING OR TREATING OBESITY COMPRISING THE SAME” (HANMI PHARM. CO., LTD., priority 2022, published 2026).
*1 amine or outer side, *2 acyl side, *3 side chain or, on linkers, in order; H or OH if unused. Bridges are numbered along the chain shown (N, C = ends). Where no end group is shown, it is not given here. Side-chain parts run from the residue outwards. [ ]: non-standard residue; d: D form. The star is where a group is joined. C20 diacid = O=C(O)CCCCCCCCCCCCCCCCCCC(=O)*; γGlu = O=C(O)[C@H](CCC(=O)[*:2])N[*:1]; AEEA = NCCOCCOCC(=O)O; Aib = CC(C)(N)C(=O)O

T1: human GIP receptor (human, UniProt P48546 22-466)
T1 sequence (looked up): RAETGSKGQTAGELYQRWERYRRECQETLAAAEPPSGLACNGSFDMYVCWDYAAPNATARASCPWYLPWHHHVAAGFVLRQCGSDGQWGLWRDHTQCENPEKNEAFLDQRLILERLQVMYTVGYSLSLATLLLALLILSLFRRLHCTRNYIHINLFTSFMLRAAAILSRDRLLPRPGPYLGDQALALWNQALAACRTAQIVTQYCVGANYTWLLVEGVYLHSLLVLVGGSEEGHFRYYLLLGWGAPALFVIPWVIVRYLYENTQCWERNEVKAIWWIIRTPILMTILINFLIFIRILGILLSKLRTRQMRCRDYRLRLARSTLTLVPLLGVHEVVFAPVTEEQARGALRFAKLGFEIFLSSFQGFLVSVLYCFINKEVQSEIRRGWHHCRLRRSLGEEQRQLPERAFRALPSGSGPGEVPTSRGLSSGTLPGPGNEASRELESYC

B1: triple agonist of SEQ ID NO: 1 (peptide)
peptide: Y[Aib]QGTFTSDYSK([AEEA-AEEA-γGlu-C20 diacid])YLDEKAAKEFVQWLLDHHPSSGQPPPS-NH2
modifications: lactam 16-20; N-terminus assumed
SMILES: CC(C)C[C@H](NC(=O)[C@H](Cc1ccc(O)cc1)NC(=O)[C@H](CCCCNC(=O)COCCOCCNC(=O)COCCOCCNC(=O)CC[C@H](NC(=O)CCCCCCCCCCCCCCCCCCC(=O)O)C(=O)O)NC(=O)[C@H](CO)NC(=O)[C@H](Cc1ccc(O)cc1)NC(=O)[C@H](CC(=O)O)NC(=O)[C@H](CO)NC(=O)[C@@H](NC(=O)[C@H](Cc1ccccc1)NC(=O)[C@@H](NC(=O)CNC(=O)[C@H](CCC(N)=O)NC(=O)C(C)(C)NC(=O)[C@@H](N)Cc1ccc(O)cc1)[C@@H](C)O)[C@@H](C)O)C(=O)N[C@@H](CC(=O)O)C(=O)N[C@H]1CCC(=O)NCCCC[C@@H](C(=O)N[C@@H](CCC(=O)O)C(=O)N[C@@H](Cc2ccccc2)C(=O)N[C@H](C(=O)N[C@@H](CCC(N)=O)C(=O)N[C@@H](Cc2c[nH]c3ccccc23)C(=O)N[C@@H](CC(C)C)C(=O)N[C@@H](CC(C)C)C(=O)N[C@@H](CC(=O)O)C(=O)N[C@@H](Cc2c[nH]cn2)C(=O)N[C@@H](Cc2c[nH]cn2)C(=O)N2CCC[C@H]2C(=O)N[C@@H](CO)C(=O)N[C@@H](CO)C(=O)NCC(=O)N[C@@H](CCC(N)=O)C(=O)N2CCC[C@H]2C(=O)N2CCC[C@H]2C(=O)N2CCC[C@H]2C(=O)N[C@@H](CO)C(N)=O)C(C)C)NC(=O)[C@H](C)NC(=O)[C@H](C)NC(=O)[C@H](CCCCN)NC1=O
B2: triple agonist of SEQ ID NO: 4 (peptide)
peptide: Y[Aib]QGTFTSDYSK([AEEA-AEEA-γGlu-C20 diacid])YLDEKRAKDFVQWLLDHHPSSGQPPPS-NH2
modifications: lactam 16-20; N-terminus assumed
SMILES: CC(C)C[C@H](NC(=O)[C@H](Cc1ccc(O)cc1)NC(=O)[C@H](CCCCNC(=O)COCCOCCNC(=O)COCCOCCNC(=O)CC[C@H](NC(=O)CCCCCCCCCCCCCCCCCCC(=O)O)C(=O)O)NC(=O)[C@H](CO)NC(=O)[C@H](Cc1ccc(O)cc1)NC(=O)[C@H](CC(=O)O)NC(=O)[C@H](CO)NC(=O)[C@@H](NC(=O)[C@H](Cc1ccccc1)NC(=O)[C@@H](NC(=O)CNC(=O)[C@H](CCC(N)=O)NC(=O)C(C)(C)NC(=O)[C@@H](N)Cc1ccc(O)cc1)[C@@H](C)O)[C@@H](C)O)C(=O)N[C@@H](CC(=O)O)C(=O)N[C@H]1CCC(=O)NCCCC[C@@H](C(=O)N[C@@H](CC(=O)O)C(=O)N[C@@H](Cc2ccccc2)C(=O)N[C@H](C(=O)N[C@@H](CCC(N)=O)C(=O)N[C@@H](Cc2c[nH]c3ccccc23)C(=O)N[C@@H](CC(C)C)C(=O)N[C@@H](CC(C)C)C(=O)N[C@@H](CC(=O)O)C(=O)N[C@@H](Cc2c[nH]cn2)C(=O)N[C@@H](Cc2c[nH]cn2)C(=O)N2CCC[C@H]2C(=O)N[C@@H](CO)C(=O)N[C@@H](CO)C(=O)NCC(=O)N[C@@H](CCC(N)=O)C(=O)N2CCC[C@H]2C(=O)N2CCC[C@H]2C(=O)N2CCC[C@H]2C(=O)N[C@@H](CO)C(N)=O)C(C)C)NC(=O)[C@H](C)NC(=O)[C@H](CCCNC(=N)N)NC(=O)[C@H](CCCCN)NC1=O
B3: triple agonist of SEQ ID NO: 5 (peptide)
peptide: Y[Aib]QGTFTSDYSK([AEEA-AEEA-γGlu-C20 diacid])ALDEKRAKEFVQWLLDQHPSSGQPPPS-NH2
modifications: lactam 16-20; N-terminus assumed
SMILES: CC(C)C[C@H](NC(=O)[C@H](C)NC(=O)[C@H](CCCCNC(=O)COCCOCCNC(=O)COCCOCCNC(=O)CC[C@H](NC(=O)CCCCCCCCCCCCCCCCCCC(=O)O)C(=O)O)NC(=O)[C@H](CO)NC(=O)[C@H](Cc1ccc(O)cc1)NC(=O)[C@H](CC(=O)O)NC(=O)[C@H](CO)NC(=O)[C@@H](NC(=O)[C@H](Cc1ccccc1)NC(=O)[C@@H](NC(=O)CNC(=O)[C@H](CCC(N)=O)NC(=O)C(C)(C)NC(=O)[C@@H](N)Cc1ccc(O)cc1)[C@@H](C)O)[C@@H](C)O)C(=O)N[C@@H](CC(=O)O)C(=O)N[C@H]1CCC(=O)NCCCC[C@@H](C(=O)N[C@@H](CCC(=O)O)C(=O)N[C@@H](Cc2ccccc2)C(=O)N[C@H](C(=O)N[C@@H](CCC(N)=O)C(=O)N[C@@H](Cc2c[nH]c3ccccc23)C(=O)N[C@@H](CC(C)C)C(=O)N[C@@H](CC(C)C)C(=O)N[C@@H](CC(=O)O)C(=O)N[C@@H](CCC(N)=O)C(=O)N[C@@H](Cc2c[nH]cn2)C(=O)N2CCC[C@H]2C(=O)N[C@@H](CO)C(=O)N[C@@H](CO)C(=O)NCC(=O)N[C@@H](CCC(N)=O)C(=O)N2CCC[C@H]2C(=O)N2CCC[C@H]2C(=O)N2CCC[C@H]2C(=O)N[C@@H](CO)C(N)=O)C(C)C)NC(=O)[C@H](C)NC(=O)[C@H](CCCNC(=N)N)NC(=O)[C@H](CCCCN)NC1=O
B4: triple agonist of SEQ ID NO: 6 (peptide)
peptide: H[Aib]HGTFTSDYSK([AEEA-AEEA-γGlu-C20 diacid])YLDEKAAKDFVQWLLDQHPSSGQPPPS-NH2
modifications: lactam 16-20; N-terminus assumed
SMILES: CC(C)C[C@H](NC(=O)[C@H](Cc1ccc(O)cc1)NC(=O)[C@H](CCCCNC(=O)COCCOCCNC(=O)COCCOCCNC(=O)CC[C@H](NC(=O)CCCCCCCCCCCCCCCCCCC(=O)O)C(=O)O)NC(=O)[C@H](CO)NC(=O)[C@H](Cc1ccc(O)cc1)NC(=O)[C@H](CC(=O)O)NC(=O)[C@H](CO)NC(=O)[C@@H](NC(=O)[C@H](Cc1ccccc1)NC(=O)[C@@H](NC(=O)CNC(=O)[C@H](Cc1c[nH]cn1)NC(=O)C(C)(C)NC(=O)[C@@H](N)Cc1c[nH]cn1)[C@@H](C)O)[C@@H](C)O)C(=O)N[C@@H](CC(=O)O)C(=O)N[C@H]1CCC(=O)NCCCC[C@@H](C(=O)N[C@@H](CC(=O)O)C(=O)N[C@@H](Cc2ccccc2)C(=O)N[C@H](C(=O)N[C@@H](CCC(N)=O)C(=O)N[C@@H](Cc2c[nH]c3ccccc23)C(=O)N[C@@H](CC(C)C)C(=O)N[C@@H](CC(C)C)C(=O)N[C@@H](CC(=O)O)C(=O)N[C@@H](CCC(N)=O)C(=O)N[C@@H](Cc2c[nH]cn2)C(=O)N2CCC[C@H]2C(=O)N[C@@H](CO)C(=O)N[C@@H](CO)C(=O)NCC(=O)N[C@@H](CCC(N)=O)C(=O)N2CCC[C@H]2C(=O)N2CCC[C@H]2C(=O)N2CCC[C@H]2C(=O)N[C@@H](CO)C(N)=O)C(C)C)NC(=O)[C@H](C)NC(=O)[C@H](C)NC(=O)[C@H](CCCCN)NC1=O
B5: triple agonist of SEQ ID NO: 7 (peptide)
peptide: Y[Aib]QGTFTSDYSK([AEEA-AEEA-γGlu-C20 diacid])YLDEKRAKDFVQWLLDQHPSSGQPPPS-NH2
modifications: lactam 16-20; N-terminus assumed
SMILES: CC(C)C[C@H](NC(=O)[C@H](Cc1ccc(O)cc1)NC(=O)[C@H](CCCCNC(=O)COCCOCCNC(=O)COCCOCCNC(=O)CC[C@H](NC(=O)CCCCCCCCCCCCCCCCCCC(=O)O)C(=O)O)NC(=O)[C@H](CO)NC(=O)[C@H](Cc1ccc(O)cc1)NC(=O)[C@H](CC(=O)O)NC(=O)[C@H](CO)NC(=O)[C@@H](NC(=O)[C@H](Cc1ccccc1)NC(=O)[C@@H](NC(=O)CNC(=O)[C@H](CCC(N)=O)NC(=O)C(C)(C)NC(=O)[C@@H](N)Cc1ccc(O)cc1)[C@@H](C)O)[C@@H](C)O)C(=O)N[C@@H](CC(=O)O)C(=O)N[C@H]1CCC(=O)NCCCC[C@@H](C(=O)N[C@@H](CC(=O)O)C(=O)N[C@@H](Cc2ccccc2)C(=O)N[C@H](C(=O)N[C@@H](CCC(N)=O)C(=O)N[C@@H](Cc2c[nH]c3ccccc23)C(=O)N[C@@H](CC(C)C)C(=O)N[C@@H](CC(C)C)C(=O)N[C@@H](CC(=O)O)C(=O)N[C@@H](CCC(N)=O)C(=O)N[C@@H](Cc2c[nH]cn2)C(=O)N2CCC[C@H]2C(=O)N[C@@H](CO)C(=O)N[C@@H](CO)C(=O)NCC(=O)N[C@@H](CCC(N)=O)C(=O)N2CCC[C@H]2C(=O)N2CCC[C@H]2C(=O)N2CCC[C@H]2C(=O)N[C@@H](CO)C(N)=O)C(C)C)NC(=O)[C@H](C)NC(=O)[C@H](CCCNC(=N)N)NC(=O)[C@H](CCCCN)NC1=O

molecular target: human GCG receptor (human, UniProt P47871 26-477); assay: cell-based or functional assay
Sequence (P47871 26-477): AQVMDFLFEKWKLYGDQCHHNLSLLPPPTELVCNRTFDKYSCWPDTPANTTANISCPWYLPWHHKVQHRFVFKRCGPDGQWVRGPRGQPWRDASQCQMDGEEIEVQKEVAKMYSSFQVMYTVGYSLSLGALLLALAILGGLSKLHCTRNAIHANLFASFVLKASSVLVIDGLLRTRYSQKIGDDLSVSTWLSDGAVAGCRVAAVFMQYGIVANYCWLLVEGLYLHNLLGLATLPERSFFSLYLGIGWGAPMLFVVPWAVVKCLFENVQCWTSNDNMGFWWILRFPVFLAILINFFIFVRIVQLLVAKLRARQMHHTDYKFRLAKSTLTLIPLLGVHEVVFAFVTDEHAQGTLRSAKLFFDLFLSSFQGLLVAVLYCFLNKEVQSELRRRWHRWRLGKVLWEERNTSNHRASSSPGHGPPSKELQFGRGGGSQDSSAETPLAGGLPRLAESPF

Compared with B1, B2 is higher in “In vitro Activity Compared to Native Peptide (%) vs. Glucagon (relative titer from cAMP EC50)” value: 0.33 % of human GCG for the first, 2.36 % of human GCG for the second.

Going from B3 to B4, the “In vitro Activity Compared to Native Peptide (%) vs. Glucagon (relative titer from cAMP EC50)” value falls from 1.51 % of human GCG to 1.36 % of human GCG.

With B5 the “In vitro Activity Compared to Native Peptide (%) vs. Glucagon (relative titer from cAMP EC50)” value was 3.32 % of human GCG.

molecular target: T1, human GIP receptor; assay: cell-based or functional assay

Going from B1 to B2, the “In vitro Activity Compared to Native Peptide (%) vs. GIP (relative titer from cAMP EC50)” value falls from 5.18 % of human GIP to 3.81 % of human GIP.

Going from B3 to B4, the “In vitro Activity Compared to Native Peptide (%) vs. GIP (relative titer from cAMP EC50)” value rises from 5.29 % of human GIP to 6.11 % of human GIP.

B5 was tested, and the “In vitro Activity Compared to Native Peptide (%) vs. GIP (relative titer from cAMP EC50)” value was 5.26 % of human GIP.

molecular target: human GLP-1 receptor (human, UniProt P43220 24-463); assay: cell-based or functional assay

First: B1
Second: B2
The “In vitro Activity Compared to Native Peptide (%) vs. GLP-1 (relative titer from cAMP EC50)” value of the first is higher: 5.88 % of human GLP-1 for the first, 3.71 % of human GLP-1 for the second.

Compared with B3, B4 is higher in “In vitro Activity Compared to Native Peptide (%) vs. GLP-1 (relative titer from cAMP EC50)” value: 2.36 % of human GLP-1 for the first, 7.94 % of human GLP-1 for the second.

In the case of B5, the “In vitro Activity Compared to Native Peptide (%) vs. GLP-1 (relative titer from cAMP EC50)” value is reported as 4.21 % of human GLP-1.
